From the supplement of paper PMC5998384

Tests used:
HeLa Kyoto [1] = assay: solubility in G1/S (NP-40 vs SDS abundance) (log2 ratio); higher = more soluble; settings: cell cycle stage: G1/S
HeLa Kyoto [2] = assay: melting temperature (median over replicates), in situ; higher = more thermally stable
HeLa Kyoto [3] = assay: solubility change mitosis vs G1/S (difference of NP-40 vs SDS log2 ratios) (log2 ratio difference); higher = more soluble in mitosis
HeLa Kyoto [4] = assay: thermal stability score vs G1/S (z-score of summed log2 fold changes over temperatures); higher = more thermally stable than in G1/S
[5] = cell cycle stage: early G1 (4.5 h after nocodazole release)
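Wherever melting temperature (median over replicates), in situ is given: HeLa Kyoto cells synchronized by double thymidine or nocodazole block, proteins quantified by TMT10plex mass spectrometry, three independent biological replicates.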
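Wherever solubility change mitosis vs G1/S (difference of NP-40 vs SDS log2 ratios) is given: synchronized HeLa Kyoto cells (double thymidine block for G1/S, nocodazole release for mitosis), protein amounts in NP-40 versus SDS lysates quantified by mass spectrometry, three biological replicates.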
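Wherever solubility in G1/S (NP-40 vs SDS abundance) is given: HeLa Kyoto cells arrested at G1/S by double thymidine block, proteins quantified by TMT10plex mass spectrometry in mild NP-40 versus SDS extracts, three biological replicates.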
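Wherever thermal stability score vs G1/S (z-score of summed log2 fold changes over temperatures) is given: synchronized HeLa Kyoto cells, proteins quantified by TMT10plex mass spectrometry, three biological replicates, mitosis taken 0.5 h after nocodazole release, G1/S directly after double thymidine block.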

Sequence	solubility in G1/S (log2) (HeLa Kyoto [1])	melting temperature (HeLa Kyoto [2]; cell cycle stage: G1/S)	melting temperature (HeLa Kyoto [2]; cell cycle stage: mitosis)	solubility change mitosis (log2) (HeLa Kyoto [3])	thermal stability score (HeLa Kyoto [4]; [5])	thermal stability score (HeLa Kyoto [4]; cell cycle stage: mitosis)
MSGYSSDRDRGRDRGFGAPRFGGSRAGPLSGKKFGNPGEKLVKKKWNLDELPKFEKNFYQEHPDLARRTAQEVETYRRSKEITVRGHNCPKPVLNFYEANFPANVMDVIARQNFTEPTAIQAQGWPVALSGLDMVGVAQTGSGKTLSYLLPAIVHINHQPFLERGDGPICLVLAPTRELAQQVQQVAAEYCRACRLKSTCIYGGAPKGPQIRDLERGVEICIATPGRLIDFLECGKTNLRRTTYLVLDEADRMLDMGFEPQIRKIVDQIRPDRQTLMWSATWPKEVRQLAEDFLKDYIHINIGALELSANHNILQIVDVCHDVEKDEKLIRLMEEIMSEKENKTIVFVETKRRCDELTRKMRRDGWPAMGIHGDKSQQERDWVLNEFKHGKAPILIATDVASRGLDVEDVKFVINYDYPNSSEDYIHRIGRTARSTKTGTAYTFFTPNNIKQVSDLISVLREANQAINPKLLQLVEDRGSGRSRGRGGMKDDRRDRYSAGKRGGFNTFRDRENYDRGYSSLLKRDFGAKTQNGVYSAANYTNGSFGSNFVSAGIQTSFRTGNPTGTYQNGYDSTQQYGSNVPNMHNGMNQQAYAYPATAAAPMIGYPMPTGYSQ [DDX5]	-0.551	47.2 °C	48.4 °C	0.397	3.64	11.3
MDALEDYVWPRATSELILLPVTGLECVGDRLLAGEGPDVLVYSLDFGGHLRMIKRVQNLLGHYLIHGFRVRPEPNGDLDLEAMVAVFGSKGLRVVKISWGQGHFWELWRSGLWNMSDWIWDARWLEGNIALALGHNSVVLYDPVVGCILQEVPCTDRCTLSSACLIGDAWKELTIVAGAVSNQLLVWYPATALADNKPVAPDRRISGHVGIIFSMSYLESKGLLATASEDRSVRIWKVGDLRVPGGRVQNIGHCFGHSARVWQVKLLENYLISAGEDCVCLVWSHEGEILQAFRGHQGRGIRAIAAHERQAWVITGGDDSGIRLWHLVGRGYRGLGVSALCFKSRSRPGTLKAVTLAGSWRLLAVTDTGALYLYDVEVKCWEQLLEDKHFQSYCLLEAAPGPEGFGLCAMANGEGRVKVVPINTPTAAVDQTLFPGKVHSLSWALRGYEELLLLASGPGGVVACLEISAAPSGKAIFVKERCRYLLPPSKQRWHTCSAFLPPGDFLVCGDRRGSVLLFPSRPGLLKDPGVGGKARAGAGAPVVGSGSSGGGNAFTGLGPVSTLPSLHGKQGVTSVTCHGGYVYTTGRDGAYYQLFVRDGQLQPVLRQKSCRGMNWLAGLRIVPDGSMVILGFHANEFVVWNPRSHEKLHIVNCGGGHRSWAFSDTEAAMAFAYLKDGDVMLYRALGGCTRPHVILREGLHGREITCVKRVGTITLGPEYGVPSFMQPDDLEPGSEGPDLTDIVITCSEDTTVCVLALPTTTGSAHALTAVCNHISSVRAVAVWGIGTPGGPQDPQPGLTAHVVSAGGRAEMHCFSIMVTPDPSTPSRLACHVMHLSSHRLDEYWDRQRNRHRMVKVDPETRYMSLAVCELDQPGLGPLVAAACSDGAVRLFLLQDSGRILQLLAETFHHKRCVLKVHSFTHEAPNQRRRLLLCSAATDGSLAFWDLTTMLDHDSTVLEPPVDPGLPYRLGTPSLTLQAHSCGINSLHTLPTREGHHLVASGSEDGSLHVFVLAVEMLQLEEAVGEAGLVPQLRVLEEYSVPCAHAAHVTGLKILSPSIMVSASIDQRLTFWRLGHGEPTFMNSTVFHVPDVADMDCWPVSPEFGHRCALGGQGLEVYNWYD [WDR6]	-0.611	51.5 °C	51.6 °C	-0.023	-0.588	0.0649
MAGLTVRDPAVDRSLRSVFVGNIPYEATEEQLKDIFSEVGPVVSFRLVYDRETGKPKGYGFCEYQDQETALSAMRNLNGREFSGRALRVDNAASEKNKEELKSLGTGAPVIESPYGETISPEDAPESISKAVASLPPEQMFELMKQMKLCVQNSPQEARNMLLQNPQLAYALLQAQVVMRIVDPEIALKILHRQTNIPTLIAGNPQPVHGAGPGSGSNVSMNQQNPQAPQAQSLGGMHVNGAPPLMQASMQGGVPAPGQMPAAVTGPGPGSLAPGGGMQAQVGMPGSGPVSMERGQVPMQDPRAAMQRGSLPANVPTPRGLLGDAPNDPRGGTLLSVTGEVEPRGYLGPPHQGPPMHHVPGHESRGPPPHELRGGPLPEPRPLMAEPRGPMLDQRGPPLDGRGGRDPRGIDARGMEARAMEARGLDARGLEARAMEARAMEARAMEARAMEARAMEVRGMEARGMDTRGPVPGPRGPIPSGMQGPSPINMGAVVPQGSRQVPVMQGTGMQGASIQGGSQPGGFSPGQNQVTPQDHEKAALIMQVLQLTADQIAMLPPEQRQSILILKEQIQKSTGAP [CSTF2]	0.323	53 °C	53.2 °C	0.172	-0.643	-0.392
MSSGAPQKSSPMASGAEETPGFLDTLLQDFPALLNPEDPLPWKAPGTVLSQEEVEGELAELAMGFLGSRKAPPPLAAALAHEAVSQLLQTDLSEFRKLPREEEEEEEDDDEEEKAPVTLLDAQSLAQSFFNRLWEVAGQWQKQVPLAARASQRQWLVSIHAIRNTRRKMEDRHVSLPSFNQLFGLSDPVNRAYFAVFDGHGGVDAARYAAVHVHTNAARQPELPTDPEGALREAFRRTDQMFLRKAKRERLQSGTTGVCALIAGATLHVAWLGDSQVILVQQGQVVKLMEPHRPERQDEKARIEALGGFVSHMDCWRVNGTLAVSRAIGDVFQKPYVSGEADAASRALTGSEDYLLLACDGFFDVVPHQEVVGLVQSHLTRQQGSGLRVAEELVAAARERGSHDNITVMVVFLRDPQELLEGGNQGEGDPQAEGRRQDLPSSLPEPETQAPPRS [PPM1F]	0.464	51.8 °C	52.7 °C	-0.0364	-0.813	-0.95
MMSQSSGSGDGNDDEATTSKDGGFSSPSPSAAAAAQEVRSATDGNTSTTPPTSAKKRKLNSSSSSSSNSSNEREDFDSTSSSSSTPPLQPRDSASPSTSSFCLGVSVAASSHVPIQKKLRFEDTLEFVGFDAKMAEESSSSSSSSSPTAATSQQQQLKNKSILISSVASVHHANGLAKSSTTVSSFANSKPGSAKKLVIKNFKDKPKLPENYTDETWQKLKEAVEAIQNSTSIKYNLEELYQAVENLCSYKISANLYKQLRQICEDHIKAQIHQFREDSLDSVLFLKKIDRCWQNHCRQMIMIRSIFLFLDRTYVLQNSMLPSIWDMGLELFRAHIISDQKVQNKTIDGILLLIERERNGEAIDRSLLRSLLSMLSDLQIYQDSFEQRFLEETNRLYAAEGQKLMQEREVPEYLHHVNKRLEEEADRLITYLDQTTQKSLIATVEKQLLGEHLTAILQKGLNNLLDENRIQDLSLLYQLFSRVRGGVQVLLQQWIEYIKAFGSTIVINPEKDKTMVQELLDFKDKVDHIIDICFLKNEKFINAMKEAFETFINKRPNKPAELIAKYVDSKLRAGNKEATDEELEKMLDKIMIIFRFIYGKDVFEAFYKKDLAKRLLVGKSASVDAEKSMLSKLKHECGAAFTSKLEGMFKDMELSKDIMIQFKQYMQNQNVPGNIELTVNILTMGYWPTYVPMEVHLPPEMVKLQEIFKTFYLGKHSGRKLQWQSTLGHCVLKAEFKEGKKELQVSLFQTLVLLMFNEGEEFSLEEIKQATGIEDGELRRTLQSLACGKARVLAKNPKGKDIEDGDKFICNDDFKHKLFRIKINQIQMKETVEEQASTTERVFQDRQYQIDAAIVRIMKMRKTLSHNLLVSEVYNQLKFPVKPADLKKRIESLIDRDYMERDKENPNQYNYIA [CUL4B]	0.0519	54.6 °C	54.4 °C	-0.261	-1.29	-1.57
MGQREMWRLMSRFNAFKRTNTILHHLRMSKHTDAAEEVLLEKKGCTGVITLNRPKFLNALTLNMIRQIYPQLKKWEQDPETFLIIIKGAGGKAFCAGGDIRVISEAEKAKQKIAPVFFREEYMLNNAVGSCQKPYVALIHGITMGGGVGLSVHGQFRVATEKCLFAMPETAIGLFPDVGGGYFLPRLQGKLGYFLALTGFRLKGRDVYRAGIATHFVDSEKLAMLEEDLLALKSPSKENIASVLENYHTESKIDRDKSFILEEHMDKINSCFSANTVEEIIENLQQDGSSFALEQLKVINKMSPTSLKITLRQLMEGSSKTLQEVLTMEYRLSQACMRGHDFHEGVRAVLIDKDQSPKWKPADLKEVTEEDLNNHFKSLGSSDLKF [HIBCH]	0.343	49.7 °C	50.2 °C	-0.019	0.653	0.967
MEKGLTLPQDCRDFVHSLKMRSKYALFLVFVVIVFVFIEKENKIISRVSDKLKQIPQALADANSTDPALILAENASLLSLSELDSAFSQLQSRLRNLSLQLGVEPAMEAAGEEEEEQRKEEEPPRPAVAGPRRHVLLMATTRTGSSFVGEFFNQQGNIFYLFEPLWHIERTVSFEPGGANAAGSALVYRDVLKQLFLCDLYVLEHFITPLPEDHLTQFMFRRGSSRSLCEDPVCTPFVKKVFEKYHCKNRRCGPLNVTLAAEACRRKEHMALKAVRIRQLEFLQPLAEDPRLDLRVIQLVRDPRAVLASRMVAFAGKYKTWKKWLDDEGQDGLREEEVQRLRGNCESIRLSAELGLRQPAWLRGRYMLVRYEDVARGPLQKAREMYRFAGIPLTPQVEDWIQKNTQAAHDGSGIYSTQKNSSEQFEKWRFSMPFKLAQVVQAACGPAMRLFGYKLARDAAALTNRSVSLLEERGTFWVT [CHST3]	0.15	55.3 °C	53.5 °C	-0.0403	-1.54	-0.213
MEMTEMTGVSLKRGALVVEDNDSGVPVEETKKQKLSECSLTKGQDGLQNDFLSISEDVPRPPDTVSTGKGGKNSEAQLEDEEEEEEDGLSEECEEEESESFADMMKHGLTEADVGITKFVSSHQGFSGILKERYSDFVVHEIGKDGRISHLNDLSIPVDEEDPSEDIFTVLTAEEKQRLEELQLFKNKETSVAIEVIEDTKEKRTIIHQAIKSLFPGLETKTEDREGKKYIVAYHAAGKKALANPRKHSWPKSRGSYCHFVLYKENKDTMDAINVLSKYLRVKPNIFSYMGTKDKRAITVQEIAVLKITAQRLAHLNKCLMNFKLGNFSYQKNPLKLGELQGNHFTVVLRNITGTDDQVQQAMNSLKEIGFINYYGMQRFGTTAVPTYQVGRAILQNSWTEVMDLILKPRSGAEKGYLVKCREEWAKTKDPTAALRKLPVKRCVEGQLLRGLSKYGMKNIVSAFGIIPRNNRLMYIHSYQSYVWNNMVSKRIEDYGLKPVPGDLVLKGATATYIEEDDVNNYSIHDVVMPLPGFDVIYPKHKIQEAYREMLTADNLDIDNMRHKIRDYSLSGAYRKIIIRPQNVSWEVVAYDDPKIPLFNTDVDNLEGKTPPVFASEGKYRALKMDFSLPPSTYATMAIREVLKMDTSIKNQTQLNTTWLR [PUS7]	0.055	52.3 °C	52.2 °C	-0.141	0.213	0.4
MSFVAGVIRRLDETVVNRIAAGEVIQRPANAIKEMIENCLDAKSTSIQVIVKEGGLKLIQIQDNGTGIRKEDLDIVCERFTTSKLQSFEDLASISTYGFRGEALASISHVAHVTITTKTADGKCAYRASYSDGKLKAPPKPCAGNQGTQITVEDLFYNIATRRKALKNPSEEYGKILEVVGRYSVHNAGISFSVKKQGETVADVRTLPNASTVDNIRSIFGNAVSRELIEIGCEDKTLAFKMNGYISNANYSVKKCIFLLFINHRLVESTSLRKAIETVYAAYLPKNTHPFLYLSLEISPQNVDVNVHPTKHEVHFLHEESILERVQQHIESKLLGSNSSRMYFTQTLLPGLAGPSGEMVKSTTSLTSSSTSGSSDKVYAHQMVRTDSREQKLDAFLQPLSKPLSSQPQAIVTEDKTDISSGRARQQDEEMLELPAPAEVAAKNQSLEGDTTKGTSEMSEKRGPTSSNPRKRHREDSDVEMVEDDSRKEMTAACTPRRRIINLTSVLSLQEEINEQGHEVLREMLHNHSFVGCVNPQWALAQHQTKLYLLNTTKLSEELFYQILIYDFANFGVLRLSEPAPLFDLAMLALDSPESGWTEEDGPKEGLAEYIVEFLKKKAEMLADYFSLEIDEEGNLIGLPLLIDNYVPPLEGLPIFILRLATEVNWDEEKECFESLSKECAMFYSIRKQYISEESTLSGQQSEVPGSIPNSWKWTVEHIVYKALRSHILPPKHFTEDGNILQLANLPDLYKVFERC [MLH1]	-0.0862	46.3 °C	48.8 °C	-0.21	3.37	5.51
